Results taken from PMC9898218 (Journal of materials chemistry. B, 2023).

Target: the molecule itself
Experiment: SEC

B1: Cowpea chlorotic mottle virus (CCMV) coat protein (natural protein)
chain: MSTVGTGKLTRAQRRAAARKNKRNTRVVQPVIVEPIASGQGKAIKAWTGYSVSKWTASCAAAEAKVTSAITISLPNELSSERNKQLKVGRVLLWLGLLPSVSGTVKSCVTETQTTAAASFQVALAVADNSKDVVAAMYPEAFKGITLEQLTADLTIYLYSSAALTEGDVIVHLEVEHVRPTFDDSFTPVY
- binding result: binds
